Target: the molecule itself
Test: single particle electron microscopy

B1: galactose permease (GalP), H+/galactose symporter from E. coli, His6-tagged (natural protein, UniProt P0AEP1 1-464, looked up)
chain: MPDAKKQGRSNKAMTFFVCFLAALAGLLFGLDIGVIAGALPFIADEFQITSHTQEWVVSSMMFGAAVGAVGSGWLSFKLGRKKSLMIGAILFVAGSLFSAAAPNVEVLILSRVLLGLAVGVASYTAPLYLSEIAPEKIRGSMISMYQLMITIGILGAYLSDTAFSYTGAWRWMLGVIIIPAILLLIGVFFLPDSPRWFAAKRRFVDAERVLLRLRDTSAEAKRELDEIRESLQVKQSGWALFKENSNFRRAVFLGVLLQVMQQFTGMNVIMYYAPKIFELAGYTNTTEQMWGTVIVGLTNVLATFIAIGLVDRWGRKPTLTLGFLVMAAGMGVLGTMMHIGIHSPSAQYFAIAMLLMFIVGFAMSAGPLIWVLCSEIQPLKGRDFGITCSTATNWIANMIVGATFLTMLNTLGNANTFWVYAALNVLFILLTLWLVPETKHVSLEHIERNLMKGRKLREIGAHD
With B1 the “stoichiometry N” value was 3.
